Source: the RNAGym collection of RNA variant scans (doi:10.1093/molbev/msab373)

B1: Azoarcus group I ribozyme (parent)
chain: GUGCCUUGCGCCGGGAAACCACGCAAGGGAUGGUGUCAAAUUCGGCGAAACCUAAGCGCCCGCCCGGGCGUAUGGCAACGCCGAGCCAAGCUUCGGCGCCUGCGCCGAUGAAGGUGUAGAGACUAGACGGCACCCACCUAAGGCAAACGCUAUGGUGAAGGCAUAGUCCAGGGAGUGGCGAAAGUCACACAAACCGG

Variants of: B1
Assay: reverse-splicing fitness (ratio to wild type); higher = more active; in vitro selection; Mg2+ level not given
Procedure, shortened: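 An in vitro group I ribozyme library with randomized positions was T7-transcribed and gel-purified. In triplicate, 10 pmol RNA in EPPS pH 7.5 was reacted with 50 pmoles of a 30-nt RNA substrate for 1 h at 37 °C across several added MgCl2 levels (1–48 mM), then stopped with EDTA. Products were reverse transcribed from a substrate-complementary primer, PCR-amplified and sequenced (HiSeq 4000). Fitness is a variant's read proportion after selection over that before, normalised to wild type.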

Q: For C82G A120C C150U C169U U176C, which reverse-splicing fitness is on record?
A: Its reverse-splicing fitness is 0.0162.

Q: Which reverse-splicing fitness does the source give for C82G A111U C150U C169G U176C here?
A: The reverse-splicing fitness was 0.0169.

Q: With C82G A111U C150U C169G U176G as the variant, how does the reverse-splicing fitness read?
A: Its reverse-splicing fitness is 0.00689.

Q: With C82G A120C A145U C150G C169U as the variant, how does the reverse-splicing fitness read?
A: Its reverse-splicing fitness is 0.0102.

Q: For C82G A120C A145U C150G C169G, which reverse-splicing fitness is on record?
A: Its reverse-splicing fitness is 0.00766.

Q: For C82G A120C A145U C150G C169A, which reverse-splicing fitness is on record?
A: Its reverse-splicing fitness is 0.00974.

Q: With C82G A120C C150U U176A as the variant, how does the reverse-splicing fitness read?
A: Its reverse-splicing fitness is 0.0429.

Q: For C82G A120C C150U U176C, which reverse-splicing fitness is on record?
A: Its reverse-splicing fitness is 0.0574.

Q: With C82G A120C C150U U176G as the variant, how does the reverse-splicing fitness read?
A: Its reverse-splicing fitness is 0.0136.

Q: Which reverse-splicing fitness does the source give for C82G A120C C150G C169U U176A here?
A: The reverse-splicing fitness was 0.00577.

Q: With C82G A120C C150G C169U U176G as the variant, how does the reverse-splicing fitness read?
A: The reverse-splicing fitness was 0.00535.

Q: With C82G A120C C150G C169U U176C as the variant, how does the reverse-splicing fitness read?
A: The reverse-splicing fitness was 0.0109.

Q: Which reverse-splicing fitness does the source give for C82G A120C A145G C169U U176G here?
A: The reverse-splicing fitness was 0.00453.

Q: For C82G A120C A145G C169U U176C, which reverse-splicing fitness is on record?
A: The reverse-splicing fitness was 0.0174.

Q: With C82G A120C A145G C169U U176A as the variant, how does the reverse-splicing fitness read?
A: The reverse-splicing fitness was 0.017.

Q: For C82G A120C C150A C169G U176G, which reverse-splicing fitness is on record?
A: The reverse-splicing fitness was 0.00501.

Q: For C82G A120C C150A C169G U176A, which reverse-splicing fitness is on record?
A: Its reverse-splicing fitness is 0.0187.

Q: Which reverse-splicing fitness does the source give for C82G A120C C150A C169G U176C here?
A: The reverse-splicing fitness was 0.0222.

Q: Which reverse-splicing fitness does the source give for C82G A120G A145C C150U C169G U176C here?
A: The reverse-splicing fitness was 0.0128.

Q: With C82G A120G A145C C150U C169G U176A as the variant, how does the reverse-splicing fitness read?
A: Its reverse-splicing fitness is 0.0238.

Q: For C82G A120G A145C C150U C169G U176G, which reverse-splicing fitness is on record?
A: Its reverse-splicing fitness is 0.00426.

Q: For C82G A111U C150U U176A, which reverse-splicing fitness is on record?
A: Its reverse-splicing fitness is 0.0918.

Q: For C82G A111U C150U U176G, which reverse-splicing fitness is on record?
A: Its reverse-splicing fitness is 0.0348.

Q: Which reverse-splicing fitness does the source give for C82G A111U C150U U176C here?
A: The reverse-splicing fitness was 0.131.

Q: For C82G A120G A145C C150G C169U, which reverse-splicing fitness is on record?
A: Its reverse-splicing fitness is 0.00976.

Q: With C82G A120G A145C C150G C169A as the variant, how does the reverse-splicing fitness read?
A: Its reverse-splicing fitness is 0.0102.

Q: For C82G A120G A145C C150G C169G, which reverse-splicing fitness is on record?
A: Its reverse-splicing fitness is 0.0108.

Q: For C82G A120C A145C C150U C169A, which reverse-splicing fitness is on record?
A: The reverse-splicing fitness was 0.008.

Q: Which reverse-splicing fitness does the source give for C82G A120C A145C C150U C169G here?
A: Its reverse-splicing fitness is 0.00749.

Q: For C82G A120C A145C C150U C169U, which reverse-splicing fitness is on record?
A: Its reverse-splicing fitness is 0.0122.

Q: For C82G A120G A145C C150G C169U U176A, which reverse-splicing fitness is on record?
A: The reverse-splicing fitness was 0.0154.

Q: For C82G A120G A145C C150G C169U U176G, which reverse-splicing fitness is on record?
A: Its reverse-splicing fitness is 0.00495.

Q: For C82G A120G A145C C150G C169U U176C, which reverse-splicing fitness is on record?
A: Its reverse-splicing fitness is 0.0125.

Q: Which reverse-splicing fitness does the source give for C82G A120C A145G C169G U176A here?
A: Its reverse-splicing fitness is 0.0164.

Q: For C82G A120C A145G C169G U176G, which reverse-splicing fitness is on record?
A: The reverse-splicing fitness was 0.00417.

Q: With C82G A120C A145G C169G U176C as the variant, how does the reverse-splicing fitness read?
A: The reverse-splicing fitness was 0.0241.

Q: Which reverse-splicing fitness does the source give for C82G A120G A145C C150U C169A U176C here?
A: The reverse-splicing fitness was 0.00669.

Q: With C82G A120G A145C C150U C169A U176G as the variant, how does the reverse-splicing fitness read?
A: Its reverse-splicing fitness is 0.00471.

Q: With C82G A120G A145C C150U C169A U176A as the variant, how does the reverse-splicing fitness read?
A: Its reverse-splicing fitness is 0.0126.

Q: Which reverse-splicing fitness does the source give for C82G A120C C169A U176A here?
A: The reverse-splicing fitness was 0.0185.

Q: Which reverse-splicing fitness does the source give for C82G A120C C169A U176C here?
A: Its reverse-splicing fitness is 0.0179.

Q: With C82G A120C C169A U176G as the variant, how does the reverse-splicing fitness read?
A: Its reverse-splicing fitness is 0.00393.

Q: Which reverse-splicing fitness does the source give for C82G A120C A145U C150U C169A here?
A: The reverse-splicing fitness was 0.00933.

Q: For C82G A120C A145U C150U C169U, which reverse-splicing fitness is on record?
A: Its reverse-splicing fitness is 0.0172.

Q: With C82G A120C A145U C150U C169G as the variant, how does the reverse-splicing fitness read?
A: Its reverse-splicing fitness is 0.00838.

Q: For C82G A120G A145C C150A C169G U176A, which reverse-splicing fitness is on record?
A: Its reverse-splicing fitness is 0.0232.

Q: Which reverse-splicing fitness does the source give for C82G A120G A145C C150A C169G U176G here?
A: The reverse-splicing fitness was 0.00456.

Q: With C82G A120G A145C C150A C169G U176C as the variant, how does the reverse-splicing fitness read?
A: Its reverse-splicing fitness is 0.0136.

Q: For C82G A120C A145G C150U C169G, which reverse-splicing fitness is on record?
A: The reverse-splicing fitness was 0.00909.

Q: For C82G A120C A145G C150U C169U, which reverse-splicing fitness is on record?
A: Its reverse-splicing fitness is 0.0243.

Q: With C82G A120C A145G C150U C169A as the variant, how does the reverse-splicing fitness read?
A: Its reverse-splicing fitness is 0.0102.

Q: Which reverse-splicing fitness does the source give for C82G A120G A145C C169A U176G here?
A: The reverse-splicing fitness was 0.0031.

Q: For C82G A120G A145C C169A U176C, which reverse-splicing fitness is on record?
A: Its reverse-splicing fitness is 0.0123.

Q: For C82G A120G A145C C169A U176A, which reverse-splicing fitness is on record?
A: The reverse-splicing fitness was 0.0144.

Q: With C82G A120C A145G C150A C169U U176C as the variant, how does the reverse-splicing fitness read?
A: Its reverse-splicing fitness is 0.0165.

Q: Which reverse-splicing fitness does the source give for C82G A120C A145G C150A C169U U176G here?
A: The reverse-splicing fitness was 0.00589.

Q: For C82G A120C A145G C150A C169U U176A, which reverse-splicing fitness is on record?
A: The reverse-splicing fitness was 0.0145.

Q: Which reverse-splicing fitness does the source give for C82G A120C C169U U176A here?
A: The reverse-splicing fitness was 0.019.

Q: For C82G A120C C169U U176C, which reverse-splicing fitness is on record?
A: Its reverse-splicing fitness is 0.0155.

Q: Which reverse-splicing fitness does the source give for C82G A120C C169U U176G here?
A: The reverse-splicing fitness was 0.00468.

Q: For C82G A120G A145C C150G, which reverse-splicing fitness is on record?
A: The reverse-splicing fitness was 0.00798.

Q: For C82G A120G A145C C150U, which reverse-splicing fitness is on record?
A: The reverse-splicing fitness was 0.0111.

Q: With C82G A120G A145C C150A as the variant, how does the reverse-splicing fitness read?
A: Its reverse-splicing fitness is 0.00852.

Q: Which reverse-splicing fitness does the source give for C82G A111U U176G here?
A: Its reverse-splicing fitness is 0.0695.

Q: For C82G A111U U176A, which reverse-splicing fitness is on record?
A: The reverse-splicing fitness was 0.214.

Q: For C82G A111U U176C, which reverse-splicing fitness is on record?
A: The reverse-splicing fitness was 0.259.

Q: For C82G A120C A145C C150A C169A, which reverse-splicing fitness is on record?
A: Its reverse-splicing fitness is 0.00726.

Q: With C82G A120C A145C C150A C169U as the variant, how does the reverse-splicing fitness read?
A: The reverse-splicing fitness was 0.00799.

Q: With C82G A120C A145C C150A C169G as the variant, how does the reverse-splicing fitness read?
A: Its reverse-splicing fitness is 0.00715.

Q: Which reverse-splicing fitness does the source give for C82G A120C C169G here?
A: Its reverse-splicing fitness is 0.00817.

Q: Which reverse-splicing fitness does the source give for C82G A120C C169A here?
A: Its reverse-splicing fitness is 0.00902.

Q: With C82G A120C C169U as the variant, how does the reverse-splicing fitness read?
A: Its reverse-splicing fitness is 0.0232.

Q: With C82G A120C A145G C150U C169U U176C as the variant, how does the reverse-splicing fitness read?
A: The reverse-splicing fitness was 0.0155.

Q: With C82G A120C A145G C150U C169U U176A as the variant, how does the reverse-splicing fitness read?
A: Its reverse-splicing fitness is 0.0184.

Q: Which reverse-splicing fitness does the source give for C82G A120C A145G C150U C169U U176G here?
A: Its reverse-splicing fitness is 0.00474.

Q: For C82G A120C A145U C169U U176A, which reverse-splicing fitness is on record?
A: Its reverse-splicing fitness is 0.0158.

Q: For C82G A120C A145U C169U U176C, which reverse-splicing fitness is on record?
A: Its reverse-splicing fitness is 0.0154.

Q: With C82G A120C A145U C169U U176G as the variant, how does the reverse-splicing fitness read?
A: The reverse-splicing fitness was 0.00344.

Q: Which reverse-splicing fitness does the source give for C82G A120C A145C C169A U176A here?
A: The reverse-splicing fitness was 0.0137.

Q: For C82G A120C A145C C169A U176G, which reverse-splicing fitness is on record?
A: Its reverse-splicing fitness is 0.00378.

Q: With C82G A120C A145C C169A U176C as the variant, how does the reverse-splicing fitness read?
A: Its reverse-splicing fitness is 0.0062.

Q: With C82G A120C A145U C150A C169A U176G as the variant, how does the reverse-splicing fitness read?
A: The reverse-splicing fitness was 0.00421.

Q: With C82G A120C A145U C150A C169A U176A as the variant, how does the reverse-splicing fitness read?
A: The reverse-splicing fitness was 0.0178.

Q: Which reverse-splicing fitness does the source give for C82G A120C A145U C150A C169A U176C here?
A: Its reverse-splicing fitness is 0.0107.
